# Reference: patent US11938104B1, “Compositions and methods for prevention and treatment of coronavirus and related disorders” (Abrexa Pharmaceuticals, Inc., priority 2021, dated 2024)
# B1: tPA: Recombinant human tPA (Alteplase); tissue plasminogen activator, thrombolytic approved by the FDA for the treatment of stroke (protein, UniProt P00750 36-562, looked up)
# Tissue-type plasminogen …: SYQVICRDEKTQMIYQQHQSWLRPVLRSNRVEYCWCNSGRAQCHSVPVKSCSEPRCFNGGTCQQALYFSDFVCQCPEGFAGKCCEIDTRATCYEDQGISYRGTWSTAESGAECTNWNSSALAQKPYSGRRPDAIRLGLGNHNYCRNPDRDSKPWCYVFKAGKYSSEFCSTPACSEGNSDCYFGNGSAYRGTHSLTESGASCLPWNSMILIGKVYTAQNPSAQALGLGKHNYCRNPDGDAKPWCHVLKNRRLTWEYCDVPSCSTCGLRQYSQPQFRIKGGLFADIASHPWQAAIFAKHRRSPGERFLCGGILISSCWILSAAHCFQERFPPHHLTVILGRTYRVVPGEEEQKFEVEKYIVHKEFDDDTYDNDIALLQLKSDSSRCAQESSVVRTVCLPPADLQLPDWTECELSGYGKHEALSPFYSERLKEAHVRLYPSSRCTSQHLLNRTVTDNMLCAGDTRSGGPQANLHDACQGDSGGPLVCLNDGRMTLVGIISWGLGCGQKDVPGVYTKVTNYLDWIRDNMRP
# System: Male SD rats
# Assay: Thromboembolic MCAO, J147+tPA expanded study, 72 h (Example 4)
# Format: in vivo, rat
# Procedure: Objective: To determine whether J147 can prevent tPA-associated brain hemorrhage and extend the treatment time window of tPA in a clinically relevant thromboembolic stroke model in rats. • J147 compound: Stock solution: 60 mg/ml DMSO, in 60 ul/vial, stored at −20° C. • Working solution: 3 mg/ml in 5% DMSO, 70% PEG200 and 25% normal saline, prepared prior to injection. • One vial stock solution was warmed at 37° C. and mixed with 1140 ul sterilized solution (PEG200: saline, 2.8:1). • Recombinant human tPA (Alteplase, 2.2 mg/vial): Reconstituted with 1.1 ml water (2 mg/ml). 10 mg/kg, 10% bonus injection, 90% 30 min. via mini pump.
# Methods: Male SD rats (280-300 g) were subjected to thromboembolic middle cerebral artery occlusion (MCAO) and treated with saline at 4 hours, tPA (tissue-type plasminogen activator; 10 mg/kg, IV) at 4 hours, and combined J147 (10 mg/kg, IV) plus tPA at 4 hours after onset of ischemia. Bederson score was examined prior to the sacrifice at 72 h after stroke. Infarct volumes, brain hemorrhage, and animal mortality were measured.
# Conclusion: J147 plus tPA combination treatment attenuates tPA-associated hemorrhage and alleviates brain damage after eMCAO. Consequently, the use of J147 in combination with tPA may extend the length of the therapeutic window for administration of tPA following an ischemic event and thereby increase the number of stroke patients that could benefit from use of tPA. • J147 compound: Stock solution: 60 mg/ml DMSO, in 60 ul/vial, stored at −20° C. • Working solution: 3 mg/ml in 5% DMSO, 70% PEG200 and 25% normal saline, prepared prior to injection. One vial stock solution was warmed at 37° C. and mixed with 1140 ul sterilized solution (PEG200: saline, 2.8:1). • Recombinant human tPA (Alteplase, 2.2 mg/vial): Reconstituted with 1.1 ml water (2 mg/ml). 10 mg/kg, 10% bonus injection, 90% 30 min. via mini pump.
# [1] = tPA 10 mg/kg IV, J147 10 mg/kg IV, at 4 hours after onset of ischemia, 72 h after stroke
molecule,measurement,setting,value
B1,brain hemorrhage / hemorrhagic transformation,[1],worsened
same,brain infarction / infarct volume,[1],did not decrease
same,mortality rate,"treatment at 4 h after onset of ischemia, log-rank test *p < 0.05 vs Saline or tPA alone group",32%
same,Death (number of rats),"treatment at 4 h after onset of ischemia, tPA n = 22, J147 plus tPA n = 17",7
